The text below walks through data of patent US20220403428A1.

In the assay the target is PcPsiH, Psilocybe cubensis tryptamine 4-monooxygenase (cytochrome P450 enzyme) (Psilocybe cubensis) (UniProt P0DPA7). The experiment in a line: cell-based or functional assay.

The substance “PcCpr, putative Psilocybe cubensis cytochrome P450 reductase (enzyme)” came in with a psilocin titer of 135 mg/L and a psilocybin titer of 117 mg/L. Substance “native S. cerevisiae cytochrome P450 reductase (Ncp1) (from UniProt P16603 2-691) (enzyme)” gave an extracellular accumulation of tryptamine of 90 mg/L.
